Common to all, as to conditions: both partners purified
In experiment [1] the target is T1, human condensin II pentameric complex (SMC2, SMC4, NCAPH2, NCAPD3, NCAPG2) (human, UniProt O95347 1-1197; Q9NTJ3 1-1288; Q6IBW4 1-605; P42695 1-1498; Q86XI2 1-1143).
T1 construct: SMC2, human, subunit of condensin II; SMC4, human, subunit of condensin II; NCAPH2, human, kleisin subunit of condensin II; NCAPD3 (CAP-D3), human, HAWK subunit of condensin II; NCAPG2 (CAPG2), human, HAWK subunit of condensin II; It says only 'strep-tagged condensin II'; also called pentameric condensin II; strep-tagged condensin II; source: insect cells, purified as previously described (Kong …)
T1 sequence (O95347 whole entry, chain 1 of 4): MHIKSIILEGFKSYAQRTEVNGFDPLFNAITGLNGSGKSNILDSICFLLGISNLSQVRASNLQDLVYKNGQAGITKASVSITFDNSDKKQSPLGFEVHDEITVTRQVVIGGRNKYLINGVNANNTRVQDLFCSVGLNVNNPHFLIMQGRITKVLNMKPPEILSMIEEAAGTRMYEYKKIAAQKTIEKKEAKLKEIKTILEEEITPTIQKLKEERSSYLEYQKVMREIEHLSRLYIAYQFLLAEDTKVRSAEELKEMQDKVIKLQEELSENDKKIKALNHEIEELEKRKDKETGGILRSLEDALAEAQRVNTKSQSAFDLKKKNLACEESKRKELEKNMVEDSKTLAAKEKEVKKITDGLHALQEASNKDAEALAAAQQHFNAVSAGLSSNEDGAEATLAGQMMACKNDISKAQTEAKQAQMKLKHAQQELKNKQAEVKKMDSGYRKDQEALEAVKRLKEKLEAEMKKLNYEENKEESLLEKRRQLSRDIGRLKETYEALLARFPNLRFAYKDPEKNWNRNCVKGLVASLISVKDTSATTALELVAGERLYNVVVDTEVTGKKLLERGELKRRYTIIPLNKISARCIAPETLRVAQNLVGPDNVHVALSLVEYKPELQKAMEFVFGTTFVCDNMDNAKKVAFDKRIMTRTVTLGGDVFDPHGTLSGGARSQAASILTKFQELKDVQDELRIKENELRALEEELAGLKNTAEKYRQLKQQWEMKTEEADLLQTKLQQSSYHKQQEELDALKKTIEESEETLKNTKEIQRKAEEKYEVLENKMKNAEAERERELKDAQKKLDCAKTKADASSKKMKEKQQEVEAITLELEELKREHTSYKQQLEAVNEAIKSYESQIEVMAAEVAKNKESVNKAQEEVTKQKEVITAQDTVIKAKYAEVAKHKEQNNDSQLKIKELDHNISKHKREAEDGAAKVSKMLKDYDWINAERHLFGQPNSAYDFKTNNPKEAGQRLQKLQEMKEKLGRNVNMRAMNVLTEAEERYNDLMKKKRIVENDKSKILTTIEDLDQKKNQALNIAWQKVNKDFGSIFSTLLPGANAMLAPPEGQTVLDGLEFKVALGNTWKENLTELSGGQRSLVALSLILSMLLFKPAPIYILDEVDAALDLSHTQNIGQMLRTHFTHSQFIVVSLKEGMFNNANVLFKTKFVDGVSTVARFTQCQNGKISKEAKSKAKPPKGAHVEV
T1 sequence (Q9NTJ3 whole entry, chain 2 of 4): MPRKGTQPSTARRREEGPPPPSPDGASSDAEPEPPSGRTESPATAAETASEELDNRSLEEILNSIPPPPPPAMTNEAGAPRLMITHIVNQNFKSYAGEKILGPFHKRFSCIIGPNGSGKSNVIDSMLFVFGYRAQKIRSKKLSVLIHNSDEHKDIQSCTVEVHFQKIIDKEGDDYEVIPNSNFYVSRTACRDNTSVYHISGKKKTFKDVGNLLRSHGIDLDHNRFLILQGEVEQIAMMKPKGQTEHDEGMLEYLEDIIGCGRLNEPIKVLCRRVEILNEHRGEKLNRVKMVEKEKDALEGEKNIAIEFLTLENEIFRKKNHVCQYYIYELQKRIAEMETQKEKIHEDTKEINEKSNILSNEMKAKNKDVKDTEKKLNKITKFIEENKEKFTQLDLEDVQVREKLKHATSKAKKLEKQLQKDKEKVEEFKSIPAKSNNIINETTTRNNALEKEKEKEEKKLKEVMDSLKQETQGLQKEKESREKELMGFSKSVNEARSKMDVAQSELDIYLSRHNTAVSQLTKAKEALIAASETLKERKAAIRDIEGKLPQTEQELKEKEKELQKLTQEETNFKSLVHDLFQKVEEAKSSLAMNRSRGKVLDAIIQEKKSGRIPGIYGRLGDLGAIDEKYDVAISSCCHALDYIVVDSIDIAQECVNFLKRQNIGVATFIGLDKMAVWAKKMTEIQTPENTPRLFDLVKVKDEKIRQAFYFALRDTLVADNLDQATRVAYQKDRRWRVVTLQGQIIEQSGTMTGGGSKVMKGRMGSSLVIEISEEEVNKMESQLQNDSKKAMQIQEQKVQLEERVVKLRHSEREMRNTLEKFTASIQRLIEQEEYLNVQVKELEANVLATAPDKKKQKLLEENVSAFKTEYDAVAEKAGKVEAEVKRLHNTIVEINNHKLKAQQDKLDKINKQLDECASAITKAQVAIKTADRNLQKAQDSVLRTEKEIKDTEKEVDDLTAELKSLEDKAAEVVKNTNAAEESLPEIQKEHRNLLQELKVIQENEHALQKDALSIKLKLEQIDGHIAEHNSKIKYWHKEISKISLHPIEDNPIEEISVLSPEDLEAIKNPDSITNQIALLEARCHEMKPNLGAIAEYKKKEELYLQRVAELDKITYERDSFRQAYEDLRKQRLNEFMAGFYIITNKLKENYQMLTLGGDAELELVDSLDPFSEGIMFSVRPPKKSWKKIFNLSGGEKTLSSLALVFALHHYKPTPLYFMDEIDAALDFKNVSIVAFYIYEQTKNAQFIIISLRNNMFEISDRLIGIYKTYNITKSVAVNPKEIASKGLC
T1 sequence (Q6IBW4 whole entry, chain 3 of 4): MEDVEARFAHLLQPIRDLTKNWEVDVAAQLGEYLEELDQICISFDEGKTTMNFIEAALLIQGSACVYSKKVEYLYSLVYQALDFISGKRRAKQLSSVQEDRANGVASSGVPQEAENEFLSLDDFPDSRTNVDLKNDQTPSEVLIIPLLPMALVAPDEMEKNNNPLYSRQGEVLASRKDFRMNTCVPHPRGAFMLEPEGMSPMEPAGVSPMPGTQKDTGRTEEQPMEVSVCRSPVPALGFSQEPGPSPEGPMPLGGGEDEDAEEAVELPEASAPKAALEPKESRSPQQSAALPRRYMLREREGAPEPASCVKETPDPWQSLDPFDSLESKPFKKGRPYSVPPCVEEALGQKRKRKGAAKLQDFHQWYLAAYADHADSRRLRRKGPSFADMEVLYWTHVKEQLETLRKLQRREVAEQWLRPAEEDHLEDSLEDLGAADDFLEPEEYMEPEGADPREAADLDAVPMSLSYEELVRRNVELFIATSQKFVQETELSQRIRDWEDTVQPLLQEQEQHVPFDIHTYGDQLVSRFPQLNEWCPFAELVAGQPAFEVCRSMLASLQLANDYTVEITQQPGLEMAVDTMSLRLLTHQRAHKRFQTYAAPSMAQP
T1 sequence (P42695 whole entry, chain 4 of 4): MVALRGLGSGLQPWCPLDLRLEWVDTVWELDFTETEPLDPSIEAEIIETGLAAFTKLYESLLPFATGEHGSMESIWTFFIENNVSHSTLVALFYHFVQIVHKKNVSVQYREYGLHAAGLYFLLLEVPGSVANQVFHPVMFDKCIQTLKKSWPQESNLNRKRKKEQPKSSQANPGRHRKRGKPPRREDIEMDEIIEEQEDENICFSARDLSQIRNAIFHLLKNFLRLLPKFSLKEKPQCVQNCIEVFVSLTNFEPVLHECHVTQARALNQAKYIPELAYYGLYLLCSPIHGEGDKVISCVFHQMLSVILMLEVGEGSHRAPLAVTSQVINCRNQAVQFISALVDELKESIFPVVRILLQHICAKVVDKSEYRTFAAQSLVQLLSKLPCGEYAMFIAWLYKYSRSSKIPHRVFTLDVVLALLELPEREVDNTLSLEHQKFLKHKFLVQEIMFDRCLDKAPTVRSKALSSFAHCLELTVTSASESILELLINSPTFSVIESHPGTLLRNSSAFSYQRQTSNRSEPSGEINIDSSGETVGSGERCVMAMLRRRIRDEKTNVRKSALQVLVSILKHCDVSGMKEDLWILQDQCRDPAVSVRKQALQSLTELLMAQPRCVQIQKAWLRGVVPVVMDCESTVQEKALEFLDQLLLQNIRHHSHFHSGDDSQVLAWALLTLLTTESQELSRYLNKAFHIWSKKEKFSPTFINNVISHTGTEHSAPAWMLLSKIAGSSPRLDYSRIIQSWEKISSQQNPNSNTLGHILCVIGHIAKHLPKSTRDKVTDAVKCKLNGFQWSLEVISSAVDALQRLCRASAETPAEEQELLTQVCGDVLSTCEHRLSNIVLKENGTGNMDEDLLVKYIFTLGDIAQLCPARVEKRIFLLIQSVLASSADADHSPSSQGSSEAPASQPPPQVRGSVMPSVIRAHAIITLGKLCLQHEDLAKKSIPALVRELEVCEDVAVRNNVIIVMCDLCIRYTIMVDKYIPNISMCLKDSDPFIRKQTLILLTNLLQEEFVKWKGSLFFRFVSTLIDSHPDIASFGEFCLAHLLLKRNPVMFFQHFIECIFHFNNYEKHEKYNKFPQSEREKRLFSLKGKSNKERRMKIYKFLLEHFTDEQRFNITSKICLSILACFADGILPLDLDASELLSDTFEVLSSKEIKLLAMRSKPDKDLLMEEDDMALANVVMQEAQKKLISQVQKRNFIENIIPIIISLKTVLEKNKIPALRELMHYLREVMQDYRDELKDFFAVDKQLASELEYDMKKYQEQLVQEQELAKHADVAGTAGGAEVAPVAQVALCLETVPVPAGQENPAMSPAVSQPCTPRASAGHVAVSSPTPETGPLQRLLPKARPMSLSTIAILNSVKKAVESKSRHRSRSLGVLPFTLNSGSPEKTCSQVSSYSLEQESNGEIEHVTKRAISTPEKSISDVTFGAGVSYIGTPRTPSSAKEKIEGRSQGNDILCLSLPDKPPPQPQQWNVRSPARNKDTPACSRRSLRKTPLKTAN
The experiment is described as follows: fluorescence polarisation; direct binding; 0.3 µM 5-FAM peptide, 0.625-5 µM condensin II complex; 20 mM Tris pH 7.5, 200 mM NaCl, 1 mM DTT; room temperature. In general terms: In fluorescence polarisation assays a small probe gives low polarisation when free and higher when bound to something large.

The target of experiment [2] is T1, human condensin II pentameric complex …. In words: pull-down; strep-tagged condensin complexes (0.1 µM) with at least a 10-fold molecular excess of MBP MCPH1 constructs or MBP, Strep-tactin sepharose, 20 mM Tris pH 7.5, 150 mM NaCl, 10 % glycerol, 1 mM DTT; five washes; Coomassie or silver stain.
Experiment [3] shares this target. The experiment is described as follows: SEC; complex of condensin II (wild type or Q-loop mutant) with MCPH1_(1-435)MBP purified by gel filtration on Superose 6 10/300 in 20 mM Tris pH 7.5, 150 mM NaCl, 1 mM DTT, for ATPase assays. In general terms: Size exclusion chromatography separates by hydrodynamic size, large species first.
For experiment [4], the target named is T2, condensin II with Q-loop mutation (SMC2 Q147L, SMC4 Q229L) (human, UniProt O95347 1-1197; Q9NTJ3 1-1288; Q6IBW4 1-605; P42695 1-1498; Q86XI2 1-1143, SMC2 Q147L | SMC4 Q229L).
T2 construct: SMC2, human, Q-loop mutant; SMC4, human, Q-loop mutant; NCAPH2, human; NCAPD3, human; NCAPG2, human; also called ATPase hydrolysis deficient Q-loop mutant condensin II; source: insect cells, purified as previously described (Kong et al., 2020); copies: + + + +
T2 sequence (O95347 whole entry Q147L, chain 1 of 4): as the sequence (O95347 whole entry, chain 1 of 4) above, with Q147L counted along it
T2 sequence (Q9NTJ3 whole entry Q229L, chain 2 of 4): as the sequence (Q9NTJ3 whole entry, chain 2 of 4) above, with Q229L counted along it
T2 sequence (Q6IBW4 whole entry, stated change not applied, chain 3 of 4): as the sequence (Q6IBW4 whole entry, chain 3 of 4) above
T2 sequence (P42695 whole entry, stated change not applied, chain 4 of 4): as the sequence (P42695 whole entry, chain 4 of 4) above
The experiment is described as above.

The target in experiment [5] is T1, human condensin II pentameric complex …. In words: fluorescence polarisation; competition; 0.63 µM condensin II and 0.3 µM 5-FAM peptide fixed, unlabelled peptide in two-fold series; 20 mM Tris pH 7.5, 200 mM NaCl, 1 mM DTT; fit for directly competitive binding.
Experiment [6] shares this target. In words: pull-down; strep-tagged full-length MCPH1 and condensin II separately purified, mixed on strep-tactin sepharose; SDS-PAGE, silver stain.

Non-standard residues stand in square brackets, D forms with d. No end group written: not given here. 5‑FAM = 5-carboxyfluorescein label; pS = N[C@@H](COP(=O)(O)O)C(=O)O

B1: 5-FAM-labelled MCPH1_(407-424) peptide (peptide)
peptide: {5‑FAM}-CGESSYDDYFSPDNLKER
notes: also called 5FAM-MCPH1; source: synthetic peptide (Genscript)
In experiment [1], B1 registered a Kd of 0.64 µM.

B2: MBP-MCPH1_(348-469) (domain or fragment, human, UniProt Q8NEM0 348-469, looked up)
chain: RPRSSSVKRKRVSHGSHSPPKEKCKRKRSTRRSIMPRLQLCRSEDRLQHVAGPALEALSCGESSYDDYFSPDNLKERYSENLPPESQLPSSPAQLSCRSLSKKERTSIFEMSDFSCVGKKTR
notes: MCPH1, human, residues 348-469; This construct is named in the results only; also called His-MBP-MCPH1 348-469; source: E. coli, purified; not shown: MBP, N-terminal, kept
Take B2: the binding result in experiment [2] is recorded as “binds”.

B3: MCPH1_(1-435)MBP after removal of the N-terminal 6xHis tag (domain or fragment, human, UniProt Q8NEM0 1-435, looked up)
chain: MAAPILKDVVAYVEVWSSNGTENYSKTFTTQLVDMGAKVSKTFNKQVTHVIFKDGYQSTWDKAQKRGVKLVSVLWVEKCRTAGAHIDESLFPAANMNEHLSSLIKKKRKCMQPKDFNFKTPENDKRFQKKFEKMAKELQRQKTNLDDDVPILLFESNGSLIYTPTIEINSRHHSAMEKRLQEMKEKRENLSPTSSQMIQQSHDNPSNSLCEAPLNISRDTLCSDEYFAGGLHSSFDDLCGNSGCGNQERKLEGSINDIKSDVCISSLVLKANNIHSSPSFTHLDKSSPQKFLSNLSKEEINLQRNIAGKVVTPDQKQAAGMSQETFEEKYRLSPTLSSTKGHLLIHSRPRSSSVKRKRVSHGSHSPPKEKCKRKRSTRRSIMPRLQLCRSEDRLQHVAGPALEALSCGESSYDDYFSPDNLKERYSENLPPESQL
notes: Same construct as m11, His tag cut off by TEV before gel filtration with condensin II; source: E. coli BL21 (DE3) pLysS, purified (Ni-NTA, ion exchange or heparin, SEC), treated with TEV protease; not shown: His6, N-terminal, cleaved; MBP, C-terminal, kept
B3: the binding result in experiment [3] and in experiment [4] was “binds” each time.

B4: MBP-MCPH1_(1-435) (domain or fragment, human, UniProt Q8NEM0 1-435, looked up)
chain: MAAPILKDVVAYVEVWSSNGTENYSKTFTTQLVDMGAKVSKTFNKQVTHVIFKDGYQSTWDKAQKRGVKLVSVLWVEKCRTAGAHIDESLFPAANMNEHLSSLIKKKRKCMQPKDFNFKTPENDKRFQKKFEKMAKELQRQKTNLDDDVPILLFESNGSLIYTPTIEINSRHHSAMEKRLQEMKEKRENLSPTSSQMIQQSHDNPSNSLCEAPLNISRDTLCSDEYFAGGLHSSFDDLCGNSGCGNQERKLEGSINDIKSDVCISSLVLKANNIHSSPSFTHLDKSSPQKFLSNLSKEEINLQRNIAGKVVTPDQKQAAGMSQETFEEKYRLSPTLSSTKGHLLIHSRPRSSSVKRKRVSHGSHSPPKEKCKRKRSTRRSIMPRLQLCRSEDRLQHVAGPALEALSCGESSYDDYFSPDNLKERYSENLPPESQL
notes: source: E. coli BL21 (DE3) pLysS, purified (Ni-NTA, ion exchange or heparin); not shown: MBP, N-terminal, kept
Regarding B4, the binding result in experiment [2] is recorded as “binds”.

B5: MCPH1_(407-424) peptide phosphorylated at serine 417 (peptide)
peptide: CGESSYDDYF[pS]PDNLKER
notes: S417 is phosphoserine; also called MCPH1pS417; source: synthetic peptide (Genscript)
Turning to B5, the Kd in experiment [5] stood at 53 ± 8 µM.

B6: strep-tagged full-length human MCPH1 (natural protein, UniProt Q8NEM0 1-835, looked up)
chain: MAAPILKDVVAYVEVWSSNGTENYSKTFTTQLVDMGAKVSKTFNKQVTHVIFKDGYQSTWDKAQKRGVKLVSVLWVEKCRTAGAHIDESLFPAANMNEHLSSLIKKKRKCMQPKDFNFKTPENDKRFQKKFEKMAKELQRQKTNLDDDVPILLFESNGSLIYTPTIEINSRHHSAMEKRLQEMKEKRENLSPTSSQMIQQSHDNPSNSLCEAPLNISRDTLCSDEYFAGGLHSSFDDLCGNSGCGNQERKLEGSINDIKSDVCISSLVLKANNIHSSPSFTHLDKSSPQKFLSNLSKEEINLQRNIAGKVVTPDQKQAAGMSQETFEEKYRLSPTLSSTKGHLLIHSRPRSSSVKRKRVSHGSHSPPKEKCKRKRSTRRSIMPRLQLCRSEDRLQHVAGPALEALSCGESSYDDYFSPDNLKERYSENLPPESQLPSSPAQLSCRSLSKKERTSIFEMSDFSCVGKKTRTVDITNFTAKTISSPRKTGNGEGRATSSCVTSAPEEALRCCRQAGKEDACPEGNGFSYTIEDPALPKGHDDDLTPLEGSLEEMKEAVGLKSTQNKGTTSKISNSSEGEAQSEHEPCFIVDCNMETSTEEKENLPGGYSGSVKNRPTRHDVLDDSCDGFKDLIKPHEELKKSGRGKKPTRTLVMTSMPSEKQNVVIQVVDKLKGFSIAPDVCETTTHVLSGKPLRTLNVLLGIARGCWVLSYDWVLWSLELGHWISEEPFELSHHFPAAPLCRSECHLSAGPYRGTLFADQPAMFVSPASSPPVAKLCELVHLCGGRVSQVPRQASIVIGPYSGKKKATVKYLSEKWVLDSITQHKVCAPENYLLSQ
notes: MCPH1, human, full length; pLIB MCPH1 from Genscript; also called full-length MCPH1; microcephalin; source: High Five insect cells (baculovirus), purified (StrepTrap, SEC)
For the molecule B6, the binding result in experiment [6] is given as “binds”.
Turning to CGESSYDDYFSPDNLKER (source: synthetic peptide (Genscript)) [MCPH1_(407-424) peptide, wild-type, unlabelled], the dissociation constant (Kd) in experiment [5] is 5.3 ± 1 µM.

B7: MBP-MCPH1_(196-435) (domain or fragment, human, UniProt Q8NEM0 196-435, looked up)
chain: QMIQQSHDNPSNSLCEAPLNISRDTLCSDEYFAGGLHSSFDDLCGNSGCGNQERKLEGSINDIKSDVCISSLVLKANNIHSSPSFTHLDKSSPQKFLSNLSKEEINLQRNIAGKVVTPDQKQAAGMSQETFEEKYRLSPTLSSTKGHLLIHSRPRSSSVKRKRVSHGSHSPPKEKCKRKRSTRRSIMPRLQLCRSEDRLQHVAGPALEALSCGESSYDDYFSPDNLKERYSENLPPESQL
notes: as for B4
For B7, in experiment [2], the binding result is on record as “binds”.

What is called Kd is the free concentration of one partner at which half of the binding sites on the other are occupied at equilibrium, for simple one-to-one binding. The low end stands for tighter binding, the high end for weaker binding.

Source of the values: article PMC8673838, “MCPH1 inhibits Condensin II during interphase by regulating its SMC2-Kleisin interface” (eLife, 2021).
